# From US8357515
# B1: ADAMTS-4 (aggrecanase-1), recombinant (enzyme, UniProt O75173 213-837, looked up, species assumed)
# A disintegrin and metalloproteinase with thrombospondin motifs 4: FASLSRFVETLVVADDKMAAFHGAGLKRYLLTVMAAAAKAFKHPSIRNPVSLVVTRLVILGSGEEGPQVGPSAAQTLRSFCAWQRGLNTPEDSDPDHFDTAILFTRQDLCGVSTCDTLGMADVGTVCDPARSCAIVEDDGLQSAFTAAHELGHVFNMLHDNSKPCISLNGPLSTSRHVMAPVMAHVDPEEPWSPCSARFITDFLDNGYGHCLLDKPEAPLHLPVTFPGKDYDADRQCQLTFGPDSRHCPQLPPPCAALWCSGHLNGHAMCQTKHSPWADGTPCGPAQACMGGRCLHMDQLQDFNIPQAGGWGPWGPWGDCSRTCGGGVQFSSRDCTRPVPRNGGKYCEGRRTRFRSCNTEDCPTGSALTFREEQCAAYNHRTDLFKSFPGPMDWVPRYTGVAPQDQCKLTCQAQALGYYYVLEPRVVDGTPCSPDSSSVCVQGRCIHAGCDRIIGSKKKFDKCMVCGGDGSGCSKQSGSFRKFRYGYNNVVTIPAGATHILVRQQGNPGHRSIYLALKLPDGSYALNGEYTLMPSPTDVVLPGAVSLRYSGATAASETLSGHGPLAQPLTLQVLVAGNPQDTRLRYSFFVPRPTPSTPRPTPQDWLHRRAQILEILRRRPWAGRK
# How the values were obtained:
# [1] = system: LAP-MMP IL-4
# [2] = system: LAP-mIL-4 fusion protein with aggrecanase cleavage site B05 (HNEFRQRETYMVF)
# Target sequence (chain, as listed by the source): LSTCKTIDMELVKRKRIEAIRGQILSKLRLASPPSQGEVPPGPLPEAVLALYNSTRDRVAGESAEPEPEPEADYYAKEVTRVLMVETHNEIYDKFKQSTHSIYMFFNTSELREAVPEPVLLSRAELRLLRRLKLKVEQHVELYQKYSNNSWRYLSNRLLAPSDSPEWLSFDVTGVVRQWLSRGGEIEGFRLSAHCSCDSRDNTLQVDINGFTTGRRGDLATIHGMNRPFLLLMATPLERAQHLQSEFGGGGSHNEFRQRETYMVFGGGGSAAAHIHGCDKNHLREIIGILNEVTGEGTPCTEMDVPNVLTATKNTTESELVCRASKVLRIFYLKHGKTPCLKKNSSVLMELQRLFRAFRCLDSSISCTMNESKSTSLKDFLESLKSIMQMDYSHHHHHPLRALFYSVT
# [3] = system: LAP-mIL-4 fusion protein with aggrecanase cleavage site B06 (DVQEFRGVTAVIR)
# Target sequence (chain, as listed by the source): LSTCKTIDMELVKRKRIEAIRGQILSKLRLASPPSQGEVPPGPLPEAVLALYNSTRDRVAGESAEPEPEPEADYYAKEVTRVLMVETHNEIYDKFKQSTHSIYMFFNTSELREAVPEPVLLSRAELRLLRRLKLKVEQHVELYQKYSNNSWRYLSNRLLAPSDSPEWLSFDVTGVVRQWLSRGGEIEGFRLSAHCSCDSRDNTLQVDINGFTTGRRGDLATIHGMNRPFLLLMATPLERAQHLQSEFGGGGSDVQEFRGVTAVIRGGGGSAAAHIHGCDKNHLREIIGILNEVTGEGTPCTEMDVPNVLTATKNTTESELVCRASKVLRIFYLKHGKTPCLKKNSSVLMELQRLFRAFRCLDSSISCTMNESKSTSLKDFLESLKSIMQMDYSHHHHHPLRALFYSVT
protein,measurement,setting,value
B1,"cleavage of the fusion protein in 293T supernatant after overnight incubation at 37 C, Western blot probed with anti-IL-4 antibody",[1],LAP-MMP IL-4 is only cleaved by MMP-1 (not cleaved by aggrecanase)
same,"cleavage of the fusion protein in 293T supernatant after overnight incubation at 37 C, Western blot probed with anti-IL-4 antibody",[2],the Agg1 and Agg2 constructs are cleaved by ADAMTS-4
same,"cleavage of the fusion protein in 293T supernatant after overnight incubation at 37 C, Western blot probed with anti-IL-4 antibody",[3],the Agg1 and Agg2 constructs are cleaved by ADAMTS-4
